Patent US20260049134A1 (UNIVERSITY OF FLORIDA RESEARCH FOUNDATION, published 2026)

B1: HW-8 chimeric rabbit-human IgG1 LA/LA/PG (antibody, V domains shown)
VH: QSLEESGGRLVTPGTPLTLTCTVSGFSLSSYAMSWVRQAPGKGLEWIGAISTGGSTTYASWAKGRFTISKTSSTTVDLKMTSLTTEDTATYFCVRHFRLWGPGTLVTISS
VL: QVLTQTPSSVSAAVGGTVTIKCQASQSIGSALAWFQQKPGQRPKLLIYRASNLASGVPSRFKGSGSGTEFALTISGVQREDAATYYCLGGAAAVWAFGAGTNVEIKR
notes: Fc-silenced (L234A/L235A/P329G) IgG1, kappa; Alexa Fluor 647-labeled in single-step flow cytometry; Cluster C-45
B2: TH9-0022 (antibody, human IgG1, kappa, L234A L235A, V domains shown)
VH: QSLEESGGRLVTPGTPLTLTCTVSGFSLSSYAMNWVRQAPGKGLEWIGIINSYGSTYYASWAKGRFTISKTSTTVDLKITSPTTEDTATYFCARVTYDSYGYGYAPYGMDLWGPGTLVTVSS
VL: LVMTQTPSSTSNAVGGTVTIKCQASQSIGNVLAWYQQKPGQPPKLLIYAASTLASGVPSRVGGSRSGTEYTLTISGVQREDAATYYCLGSDSDSDIAFGGGTELEILR
notes: also called TH9-022; negative control
B3: HW-56 chimeric rabbit-human IgG1 LA/LA/PG (antibody, V domains shown)
VH: QSVKESEGGLFKPTDTLTLTCTASGFTVSTNAVTWVRQAPGNGLEYIGTIGRSGSAYFASWAKRRSTLTRDINLNTVTLKMTSLTAADTATYFCVRGSPGYRTAISIWGPGTLVTISS
VL: AVMTQTPSSTSAAVEGTVTINCQASQSISNRLSWFQQKPGQPPKLLIYQASTLASGVPSRFKGSGSGTEFTLTISGVQREDAATYYCLGSYSSSDASFGGGTKLEIKR
notes: as for B1
B4: HW-16 chimeric rabbit-human IgG1 LA/LA/PG (antibody, V domains shown)
VH: QSLEESGGRLVTPGTPLTLTCTASGFSLSSYAMSWVRQAPGKGLEWIGTMPTGGGTYYASWAKGRFTISKTSTTVDLQITSPTTEDTATYFCAKHWNIWGPGTLVTISS
VL: DIVLTQTPSSTSTAVGDTVTINCRASQSIGRNLAWFQQKPGQPPKLLIYRASNLASGVPSRFKGSGSRTQFTLTISGVQREDAATYYCLGSYSSSDTAFGGGTELEILR
notes: as for B1
B5: HW-42 chimeric rabbit-human IgG1 LA/LA/PG (antibody, V domains shown)
VH: QSVKESEGGLFKPADTLTLTCTVSGFSLSSNEISWVRQAPGEGLEYIGIIDTGGRAYYAVWARSRSTITRNTNLNTVTLKMTSLTAADTATYFCARGGVDTEWYAFSSWGPGTLVTVPS
VL: SFVLTQPASVQVNLGQTVSLTCTADTLSRRYASWYQQKPGQAPVLLIFRDTSRPSGVPDRFSGSSSGDTATLTISGAQAGDEADYYCATSDGSGSNYQYVFGGGTQLTVTG
notes: Fc-silenced (L234A/L235A/P329G) IgG1, lambda; Alexa Fluor 647-labeled in single-step flow cytometry; Cluster C-1
B6: HW-28 chimeric rabbit-human IgG1 LA/LA/PG (antibody, V domains shown)
VH: QKQLVESGGRLVTPGTPLTLTCTASGFSLSSNAMSWVRQAPGEGLQWIGTISSGGSTYYASWAKGRFTISKTSTTVTLKMTSLTTEDTATYFCARGADLHRLWGPGTLVTVSS
VL: SFVLTQPASVQVNLGQTVSLTCTGKPLSRSFASWYQQKPGQAPVLVIYRDTSRPSGVPDRFSGSSSGNTATLTISGAQAGDEADYYCATSDGSGSSYQYVFGGGTQLTVTG
notes: Fc-silenced (L234A/L235A/P329G) IgG1, lambda; Alexa Fluor 647-labeled in single-step flow cytometry; Cluster C-45
B7: HW-70 chimeric rabbit-human IgG1 LA/LA/PG (antibody, V domains shown)
VH: QSLEESGGRLVTPGTPLTLTCTVSGFSLSSNAMSWVRQAPGKGLEWIGTIDGYGYTYYASWAKGRFTVSKTSTTVDLKITSPTTEDTATYFCAREIYLGSNFWGPGTLVTISS
VL: SFVLTQPASVQVNLGQTVSLTCTADTLSRRYASWYQQKPGQAPVLLIYRDTSRPSGVPDRFSGSSSGNTATLTISGAQAGDEADYYCATADGSGSSYQFVFGGGTQLTVTG
notes: as for B5
B8: HW-25 chimeric rabbit-human IgG1 LA/LA/PG (antibody, V domains shown)
VH: QSLEESGGRLVTPGTPLTLTCTVSGFSLSSYAMGWVRQAPGKGLEWIGIIDSRGSTYYATWAKGRFTISKTSTTVDLKITSPTTEDTATYFCAREDSYYYDSFNLWGPGTLVTVSS
VL: SFVLTQPASVQVNLGQTVSLTCTADTLSRRYASWYQQKPGQAPVLLIYRDTSRPSGVPDRFSGSSSGNTATLTISGAQAGDEADYYCATSDGSGSSYQCVFGGGTQLTVTG
notes: as for B5
B9: HW-45 chimeric rabbit-human IgG1 LA/LA/PG (antibody, V domains shown)
VH: QKQLVESGGRLVTPGTPLTLTCTVSGFSLSSYAMGWFRQAPGKGLEWIGIINSYGSTYYASWAKGRFTISKTSTTVDLKITSPTTEDTATYFCGRRIGSARFDPWGPGTLVTVSS
VL: SFVLTQPASVQVNLGQTVSLTCTADTLSRSYASWYQQKPGQAPVLLIYRDTRRPSGVPDRFSGSSSGNTATLTISGAQAGDEADYYCATSDGSGSSYRLVFGGGTQLTVTG
notes: Fc-silenced (L234A/L235A/P329G) IgG1, lambda; Alexa Fluor 647-labeled in single-step flow cytometry; Prototype of cluster C-45
B10: HW-81 chimeric rabbit-human IgG1 LA/LA/PG (antibody, V domains shown)
VH: QKQLVESGGGLVTPGGTLTLTCTVSGFSLSSNGVSWVRQAPGKGLEYIGLIRSIGSTYYATWAKGRFTISKTSTTVDLKITSPTTEDTATYFCARGGYRNGFKLWGPGTLVTVSS
VL: QPVLTQSPSVSAALGASAKLTCTLSSAHKTYYIEWYQQQHPGKAPRYLMQLQSDGSYTKGTGVPDRFSGSSSGADRYLIISSVQAEDEADYICGVIDSAVYVFGGGTQLTVTG
notes: as for B6

Legend:
DCC = biological target: T1, DCC; test: ELISA on coated protein
T1 construct: also called DCC-His (R&D Systems)
T1 chain: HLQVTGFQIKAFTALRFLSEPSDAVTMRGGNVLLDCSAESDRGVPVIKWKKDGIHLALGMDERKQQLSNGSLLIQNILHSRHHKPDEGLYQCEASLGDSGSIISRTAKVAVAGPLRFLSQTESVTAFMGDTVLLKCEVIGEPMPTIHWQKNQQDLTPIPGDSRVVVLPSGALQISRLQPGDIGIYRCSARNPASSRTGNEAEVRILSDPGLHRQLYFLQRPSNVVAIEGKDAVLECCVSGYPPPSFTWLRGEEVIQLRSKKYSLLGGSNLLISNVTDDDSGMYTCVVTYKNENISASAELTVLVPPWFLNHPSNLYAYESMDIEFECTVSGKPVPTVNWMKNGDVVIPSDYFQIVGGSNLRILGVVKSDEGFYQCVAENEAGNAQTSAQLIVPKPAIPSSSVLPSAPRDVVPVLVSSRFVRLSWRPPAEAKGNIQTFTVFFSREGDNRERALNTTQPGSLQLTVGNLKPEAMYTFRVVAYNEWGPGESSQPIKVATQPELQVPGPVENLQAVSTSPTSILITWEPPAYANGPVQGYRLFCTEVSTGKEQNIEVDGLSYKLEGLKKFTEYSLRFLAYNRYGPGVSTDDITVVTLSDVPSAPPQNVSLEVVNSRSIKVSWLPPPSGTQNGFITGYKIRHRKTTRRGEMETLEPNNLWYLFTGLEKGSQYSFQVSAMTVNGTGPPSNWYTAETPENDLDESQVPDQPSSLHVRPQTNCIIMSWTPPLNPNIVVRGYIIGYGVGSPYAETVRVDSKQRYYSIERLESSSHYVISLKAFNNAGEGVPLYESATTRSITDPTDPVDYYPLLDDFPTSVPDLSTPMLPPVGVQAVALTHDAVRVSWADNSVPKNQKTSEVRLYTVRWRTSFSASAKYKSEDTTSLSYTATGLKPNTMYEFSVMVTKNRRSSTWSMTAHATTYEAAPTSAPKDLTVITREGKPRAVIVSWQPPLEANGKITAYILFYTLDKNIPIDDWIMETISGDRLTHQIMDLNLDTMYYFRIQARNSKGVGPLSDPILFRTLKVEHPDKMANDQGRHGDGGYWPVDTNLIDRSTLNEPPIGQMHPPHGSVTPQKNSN
Experimental: (§1) Recombinant purified ECDs (50-150 ng) of each putative target protein were coated, incubated with 150 ng of the indicated primary antibody, and binding was detected using a peroxidase-conjugated anti-human Fab secondary antibody. Heatmap represents averages of technical triplicates. (8B) Target validation via siRNA knockdown. H929 cells were transfected with siRNA pools targeting the putative antibody targets ICAM1, CADM1, and PTPRG. Cells were then subjected to cognate IgG binding analysis via flow cytometry. (NT, non-targeting siRNA).
(§2) ELISA ELISA was conducted as described previously. Briefly, 50-150 ng of antigen was coated overnight in half-area 96-well plates at 4° C., blocked with 3% BSA at 37° C. for 1 h, and 150 ng of chimeric rabbit/human IgG1 was added, incubating for 2 h at 37° C. […] After incubating at 37° C. for 15 min-1 h (depending on intensity of controls), data were acquired using a SpectraMax M5 plate reader (Molecular Devices).

IGSF11 = biological target: T2, IGSF11; test: ELISA on coated protein
T2 construct: also called IGSF11-Fc (R&D Systems)
T2 chain: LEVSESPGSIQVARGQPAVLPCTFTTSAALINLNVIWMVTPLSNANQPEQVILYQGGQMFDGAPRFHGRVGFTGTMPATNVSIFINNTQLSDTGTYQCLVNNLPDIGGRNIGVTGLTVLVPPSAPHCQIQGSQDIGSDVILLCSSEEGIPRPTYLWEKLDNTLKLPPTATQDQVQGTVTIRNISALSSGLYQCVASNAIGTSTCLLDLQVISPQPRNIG
Experimental: as §1, §2

[1] = biological target: T3, GARS, endogenous in H929 multiple myeloma cells (human, UniProt P41250 37-739, limits assumed); test: flow cytometry, H929 + ICAM1 siRNA; None 455; surface target GARS putative
T3 construct: Native protein pulled down from H929 lysates; also called Glycyl-tRNA synthetase; GlyRS
T3 sequence: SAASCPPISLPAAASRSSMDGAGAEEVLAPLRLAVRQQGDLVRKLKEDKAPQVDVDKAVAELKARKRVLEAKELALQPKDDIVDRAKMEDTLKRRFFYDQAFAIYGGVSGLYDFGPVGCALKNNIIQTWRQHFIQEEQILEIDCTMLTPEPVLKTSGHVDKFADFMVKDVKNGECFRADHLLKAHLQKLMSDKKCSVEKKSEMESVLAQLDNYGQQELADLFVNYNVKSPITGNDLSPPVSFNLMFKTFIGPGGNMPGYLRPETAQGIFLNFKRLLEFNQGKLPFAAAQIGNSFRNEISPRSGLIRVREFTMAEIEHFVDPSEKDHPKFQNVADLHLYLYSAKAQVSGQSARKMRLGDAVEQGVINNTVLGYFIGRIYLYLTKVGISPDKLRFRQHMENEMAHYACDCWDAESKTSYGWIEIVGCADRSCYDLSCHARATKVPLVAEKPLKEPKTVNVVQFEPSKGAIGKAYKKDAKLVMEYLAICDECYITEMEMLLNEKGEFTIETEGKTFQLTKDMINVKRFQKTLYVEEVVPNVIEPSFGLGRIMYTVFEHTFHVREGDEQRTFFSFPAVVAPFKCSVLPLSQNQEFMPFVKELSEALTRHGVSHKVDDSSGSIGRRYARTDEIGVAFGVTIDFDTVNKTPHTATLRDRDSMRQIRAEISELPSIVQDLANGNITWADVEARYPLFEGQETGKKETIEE

[2] = biological target: T4, PTPRG, endogenous in H929 multiple myeloma cells (human, UniProt P23470 20-1445); test: flow cytometry, H929 + NT Green siRNA; None 416
T4 construct: Native protein on H929 cells (flow cytometry, siRNA knockdown) and in H929 lysates (IP/MS); also called phosphatase receptor type γ
T4 sequence (P23470 20-1445 limits assumed): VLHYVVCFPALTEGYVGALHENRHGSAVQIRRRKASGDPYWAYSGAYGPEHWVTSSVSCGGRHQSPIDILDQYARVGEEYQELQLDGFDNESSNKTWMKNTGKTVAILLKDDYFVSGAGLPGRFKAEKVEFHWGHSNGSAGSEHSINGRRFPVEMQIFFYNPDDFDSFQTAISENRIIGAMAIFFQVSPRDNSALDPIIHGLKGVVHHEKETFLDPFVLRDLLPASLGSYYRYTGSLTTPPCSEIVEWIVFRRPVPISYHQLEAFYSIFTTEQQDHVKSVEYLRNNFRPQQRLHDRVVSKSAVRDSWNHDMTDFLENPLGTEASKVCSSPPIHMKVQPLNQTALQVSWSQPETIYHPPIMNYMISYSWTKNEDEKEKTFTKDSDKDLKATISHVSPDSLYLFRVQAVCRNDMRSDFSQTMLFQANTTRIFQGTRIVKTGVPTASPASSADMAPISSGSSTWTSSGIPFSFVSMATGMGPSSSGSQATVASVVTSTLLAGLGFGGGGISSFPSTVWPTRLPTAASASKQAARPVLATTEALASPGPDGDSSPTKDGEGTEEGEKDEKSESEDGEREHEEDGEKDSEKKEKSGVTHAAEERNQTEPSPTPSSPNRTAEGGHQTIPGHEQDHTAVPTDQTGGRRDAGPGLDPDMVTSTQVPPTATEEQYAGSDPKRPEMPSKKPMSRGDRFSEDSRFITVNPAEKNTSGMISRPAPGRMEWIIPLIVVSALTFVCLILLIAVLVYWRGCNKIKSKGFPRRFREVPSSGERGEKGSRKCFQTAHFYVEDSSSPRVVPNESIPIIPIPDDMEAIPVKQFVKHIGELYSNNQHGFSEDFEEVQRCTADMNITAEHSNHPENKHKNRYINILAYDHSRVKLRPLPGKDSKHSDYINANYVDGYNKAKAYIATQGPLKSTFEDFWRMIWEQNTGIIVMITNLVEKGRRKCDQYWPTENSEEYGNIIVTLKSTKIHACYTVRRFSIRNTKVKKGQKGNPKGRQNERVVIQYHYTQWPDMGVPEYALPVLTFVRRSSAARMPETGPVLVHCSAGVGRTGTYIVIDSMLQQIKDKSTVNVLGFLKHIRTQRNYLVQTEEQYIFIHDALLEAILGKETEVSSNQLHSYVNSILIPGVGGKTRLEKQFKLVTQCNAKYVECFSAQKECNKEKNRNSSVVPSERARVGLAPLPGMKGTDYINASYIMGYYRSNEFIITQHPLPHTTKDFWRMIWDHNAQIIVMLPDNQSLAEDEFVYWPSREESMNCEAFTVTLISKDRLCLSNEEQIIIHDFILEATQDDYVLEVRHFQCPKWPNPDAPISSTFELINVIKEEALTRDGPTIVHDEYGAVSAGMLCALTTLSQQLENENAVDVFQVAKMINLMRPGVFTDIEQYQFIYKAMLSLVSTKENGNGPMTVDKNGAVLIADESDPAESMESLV

Binder	binding result (DCC)	binding result (IGSF11)	mAb binding (MFI) [1]	mAb binding (MFI) [2]
B1	no binding (tested: 150 ng IgG1 per well)	no binding (tested: 150 ng IgG1 per well)	11400	
B2				483
B3			497000	
B4			48900	
B5	no binding (tested: 150 ng IgG1 per well)	no binding (tested: 150 ng IgG1 per well)		8410
B6			33900	
B7	no binding (tested: 150 ng IgG1 per well)	no binding (tested: 150 ng IgG1 per well)		12600
B8	no binding (tested: 150 ng IgG1 per well)	no binding (tested: 150 ng IgG1 per well)		7680
B9			20800	
B10			640000	
